According to patent publication US20230001009A1, “NANOPARTICLE COMPOSITIONS AND METHODS OF USE” (The Trustees of the University of Pennsylvania, priority 2019, published 2023):

Assays:
[1] = tested on: neutrophils in LPS-inflamed lungs; conditions: mouse, in vivo, iv
Description: Mice received IV LPS as a model of sepsis/ARDS and were injected five hours later with liposomes (approx. 5 mg/kg). Lung uptake provides a measure of tropism to marginated neutrophils. D5=5 DBCO per protein (IgG) on the tag. D5=5 DBCO per IgG on the tag. D20=20 per IgG on the tag. 25% chol=25% (moles cholesterol/total moles of lipid) of the lipids in liposomes was cholesterol. 25% cholesterol=25% (moles cholesterol/total moles of lipid) of the lipids in liposomes was cholesterol.
Radiolabeled clone 1A8 anti-Ly6G antibody was administered to determine the location and concentration of neutrophils in naïve mice and mice exposed to intravenous (IV) lipopolysaccharides (LPS) (FIG. 1A).
Previous work has traced the neutrophil response to bacteria in the lungs, determining that pulmonary neutrophils pursue and engulf active bacteria following either intravenous infection or infection of the airspace in the lungs. We injected heat-inactivated, oxidized, and fixed E. coli in naïve and IV-LPS-injured mice.
Neither nanoparticle was functionalized with antibodies or other affinity tags. The protein component of each particle was labeled with ^125I for tracing in biodistributions assessed 30 minutes after IV administration of nanoparticles.
Variants of LDNG structure, crosslinked protein NP structure, and NP structure based on charged protein interactions were traced in naïve control and IV-LPS-injured mice. As examples of highly crystalline protein-based NPs based on site-specific protein interactions (rather than site-indiscriminate interactions leading to crosslinker, gelation, or charge-based protein NPs), we also traced viruses in naïve and LPS-treated mice. Adding in liposomes and polystyrene NPs as example nanostructures not based on protein, we undertook a study to evaluate how aspects of NP structure including size, composition, surface chemistry, and crystallinity impact NP affinity for LPS-injured lungs.

ex vivo human lungs = tested on: ex vivo human lungs
Text: Finally, fluorescent or ^125I-labeled LDNGs were infused via arterial catheter into ex vivo human lungs excluded from organ donation due to conditions (including edema and injury) resembling those found in ARDS patients. Immediately prior to LDNG administration, tissue dye was infused via the same catheter to stain regions of the lungs directly perfused by the chosen branch of the pulmonary artery (FIG. 7C). After infusion of LDNGs, phosphate buffered saline infusion rinsed away unbound particles. Perfused regions of the lungs were dissected and divided into ˜1 g segments, divided into regions deemed to have high, medium, or low levels of staining with tissue dye. For lungs receiving fluorescent LDNGs, well-perfused and poorly-perfused regions were selected for sectioning and fluorescent imaging. Fluorescent signal from LDNGs was clearly detectable in sections of well-perfused tissue, but not poorly-perfused tissue (FIG. 7D). In experiments with ^125I-labeled LDNGs, ^131I-labeled ferritin was concurrently infused (i.e. a mix of ferritin and LDNGs was infused) as an internal control particle shown to have no affinity for injured mouse lungs. For LDNGs and ferritin infused into the same lungs via the same branch of the pulmonary artery, LDNGs retained in the lungs at 52.15% initial dose and ferritin retained at 9.27% initial dose (FIG. 7E). […]

For “bovine albumin: isolated radiolabeled protein”, the “Lung uptake, percent of initial dose” value [1] was 1.38 % initial dose.
For ferritin, the “LPS:naïve lung uptake ratio” value [1] was 1.15, the “Lung uptake, percent of initial dose” value [1] was 0.68 % initial dose and the “Retained in the lungs” value (ex vivo human lungs) was 9.27 % initial dose.
In the case of lysozyme: isolated radiolabeled protein, the “Lung uptake, percent of initial dose” value [1] is reported as 1.34 % initial dose.
“transferrin: isolated radiolabeled protein” was tested, and the “Lung uptake, percent of initial dose” value [1] was 1.45 % initial dose.
